B1: CNNM4_(BAT-cNMP-Ctail) (complete intracellular region of human CNNM4, residues 356-775) [human] / itself (parent)
chain: KEELNMIQGALELRTKTVEDIMTQLQDCFMIRSDAILDFNTMSEIMESGYTRIPVFEDEQSNIVDILYVKDLAFVDPDDCTPLKTITRFYNHPVHFVFHDTKLDAMLEEFKKGKSHLAIVQKVNNEGEGDPFYEVLGLVTLEDVIEEIIKSEILDESDMYTDNRSRKRVSEKNKRDFSAFKDADNELKVKISPQLLLAAHRFLATEVSQFSPSLISEKILLRLLKYPDVIQELKFDEHNKYYARHYLYTRNKPADYFILILQGKVEVEAGKENMKFETGAFSYYGTMALTSVPSDRSPAHPTPLSRSASLSYPDRTDVSTAATLAGSSNQFGSSVLGQYISDFSVRALVDLQYIKITRQQYQNGLLASRMENSPQFPIDGCTTHMENLAEKSELPVVDETTTLLNERNSLLHKASHENAI
B2: CNNM4_(cNMP) (human CNNM4 cyclic nucleotide monophosphate binding-like domain, residues 545-730) [modified: SeMet labeled in the crystals; SeMet labeled in the crystals] [human] / itself (parent)
chain: KISPQLLLAAHRFLATEVSQFSPSLISEKILLRLLKYPDVIQELKFDEHNKYYARHYLYTRNKPADYFILILQGKVEVEAGKENMKFETGAFSYYGTMALTSVPSDRSPAHPTPLSRSASLSYPDRTDVSTAATLAGSSNQFGSSVLGQYISDFSVRALVDLQYIKITRQQYQNGLLASRMENSPQ

What was measured:
itself [1] = variants of: B1; test: SEC-MALS; conditions: with itself, monomer MW = 47,861.17 Da
itself [2] = variants of: B2; test: SEC-MALS; conditions: with itself, monomer Mw = 20936.78 Da

screen value (itself [1]; 1 mg/mL (dotted lines)) | screen value (itself [1]; 10 mg/mL (solid lines)) | screen value (itself [2]; 1 mg/mL (dotted lines)) | screen value (itself [2]; 10 mg/mL (solid lines)) | Variant
49200 Da | 60900 Da |  |  | chain 1 F276A
 |  | 21700 Da | 26400 Da | chain 1 F87A

— PMC6940986, “Structural Insights into the Intracellular Region of the Human Magnesium Transport Mediator CNNM4” (International Journal of Molecular Sciences, 2019)
